Experimental findings from US11873336 (TENEOBIO, dated 2024) are described below.

Assay [1] concerns the target T1, human CD22 on CD22-positive Burkitt's lymphoma cells (Daudi, Raji, Ramos) (human, UniProt P20273 20-847).
T1 construct: whole, on cells; also called CD22+ cells; CD22 positive cells
T1 sequence (looked up): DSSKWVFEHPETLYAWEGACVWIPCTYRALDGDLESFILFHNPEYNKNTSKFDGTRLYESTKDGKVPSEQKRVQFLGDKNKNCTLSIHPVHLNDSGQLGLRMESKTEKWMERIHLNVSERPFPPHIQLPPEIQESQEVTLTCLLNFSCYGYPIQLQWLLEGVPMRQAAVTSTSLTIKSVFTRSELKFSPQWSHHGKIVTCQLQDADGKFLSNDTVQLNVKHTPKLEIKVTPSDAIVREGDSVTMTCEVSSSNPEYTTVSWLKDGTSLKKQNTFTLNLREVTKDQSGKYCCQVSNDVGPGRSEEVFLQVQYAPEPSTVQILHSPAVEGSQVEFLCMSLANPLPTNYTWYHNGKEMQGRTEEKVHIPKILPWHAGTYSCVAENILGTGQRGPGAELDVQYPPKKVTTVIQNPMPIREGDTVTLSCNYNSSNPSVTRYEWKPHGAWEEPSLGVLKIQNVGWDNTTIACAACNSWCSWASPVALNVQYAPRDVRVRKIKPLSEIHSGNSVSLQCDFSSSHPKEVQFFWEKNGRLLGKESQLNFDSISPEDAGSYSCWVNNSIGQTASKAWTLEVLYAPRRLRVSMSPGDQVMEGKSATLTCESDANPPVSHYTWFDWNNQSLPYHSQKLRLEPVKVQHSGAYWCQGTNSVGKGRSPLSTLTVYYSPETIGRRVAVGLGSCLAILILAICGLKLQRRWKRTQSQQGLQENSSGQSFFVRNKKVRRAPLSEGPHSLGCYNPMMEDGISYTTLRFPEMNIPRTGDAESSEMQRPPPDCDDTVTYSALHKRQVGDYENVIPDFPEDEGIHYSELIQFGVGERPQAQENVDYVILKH
In words: cell binding, Daudi cells. The method, then: Binding to CD22 positive cells was assessed by flow cytometry (Guava easyCyte 8HT, EMD Millipore) using the Daudi cell line (ATCC). Briefly, 100,000 target cells were stained with a dilution series of purified UniAbs™ for 30 minutes at 4° C. Following incubation, the cells were washed twice with flow cytometry buffer (1×PBS, 1% BSA, 0.1% NaN_3) and stained with goat F(ab')2 anti-human IgG conjugated to R-phycoerythrin (PE) (Southern Biotech, cat. #2042-09) to detect cell-bound antibodies. After a 20-minute incubation at 4° C., the cells were washed twice with flow cytometry buffer and then mean fluorescence intensity (MFI) was measured by flow cytometry. EC50 values were calculated using GraphPad Prism 7. Binding to *cynomolgus* CD22 positive cells was determined using the same protocol with the following modifications: the target cells were from CHO cells stably transfected to express the extracellular domain of *cynomolgus* CD22 and each antibody was tested at a single concentration (~1.7 µg/mL) so EC50 values were not calculated.

For assay [2], the target named is T2, human CD22 protein (recombinant CD22 extracellular domain) (human, UniProt P20273 20-687).
T2 construct: extracellular domain; also called SIGLEC-2
T2 sequence (looked up): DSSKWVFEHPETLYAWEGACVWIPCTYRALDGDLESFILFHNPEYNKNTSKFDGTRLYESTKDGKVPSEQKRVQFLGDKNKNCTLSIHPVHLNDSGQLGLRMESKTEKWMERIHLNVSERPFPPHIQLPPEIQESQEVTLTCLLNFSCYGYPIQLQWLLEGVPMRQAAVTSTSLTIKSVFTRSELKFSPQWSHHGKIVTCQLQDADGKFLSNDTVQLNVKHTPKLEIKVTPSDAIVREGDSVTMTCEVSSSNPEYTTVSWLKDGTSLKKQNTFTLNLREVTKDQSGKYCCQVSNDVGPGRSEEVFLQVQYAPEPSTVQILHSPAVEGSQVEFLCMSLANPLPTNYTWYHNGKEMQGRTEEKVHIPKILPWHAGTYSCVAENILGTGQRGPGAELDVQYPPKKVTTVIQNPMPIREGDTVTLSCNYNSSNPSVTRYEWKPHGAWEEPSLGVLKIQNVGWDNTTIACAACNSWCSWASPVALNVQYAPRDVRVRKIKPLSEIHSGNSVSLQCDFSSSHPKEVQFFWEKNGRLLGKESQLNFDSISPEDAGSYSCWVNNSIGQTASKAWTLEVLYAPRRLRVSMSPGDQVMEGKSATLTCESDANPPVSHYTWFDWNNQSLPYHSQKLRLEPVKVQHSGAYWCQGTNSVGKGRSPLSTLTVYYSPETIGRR
In words: ELISA on recombinant CD22 extracellular domain and/or cell binding. Background: ELISA stands for enzyme-linked immunosorbent assay.

B1: anti-CD22 heavy chain-only antibody with the VH of SEQ ID NO: 66 (antibody, V domains shown)
VH: QLQLQESGPGLVKPSETLSLTCTVSGGSISSSSYYWGWIRQPPGKGLEWIGSIYYSGSTYYNPSLKNRVTISVDTSKNQFSLKLSSVTAADTAVYYCTREDSSNWRSRGQGTLVTVSS
notes: Heavy chain-only antibody (UniAb), human IgG
Consider B1, for which the binding result in assay [1] and in assay [2] was “binds” throughout.

B2: anti-CD22 heavy chain-only antibody with the VH of SEQ ID NO: 77 (antibody, V domains shown)
VH: QLQLQESGPGLVKPSETLSLTCTVSGGSISSSSYYWGWFRHPPGKGLDWIGSIHYSGSTYYNPSLKSRVTISVDTSRNQFSLNLSSVTAADTAVYYCTRDDSSNWRSRGQGTLVTVSS
notes: as for B1
B2: the binding result in assay [1] and in assay [2] was “binds” each time.

B3: anti-CD22 heavy chain-only antibody with the VH of SEQ ID NO: 83 (antibody, V domains shown)
VH: QLQLQESGPGLVKPSETLSLTCTVSGDSISSGDYYWGWIRQPPGKGLEWIGHIYYSGATYYNPSLKNRVTISVDTSRNQSSLNLSSVTAADTAVYYCTREDSSNWRSRGQGTLVTVSS
notes: as for B1
Turning to B3, the binding result in assay [1] and in assay [2] was “binds” each time.

B4: anti-CD22 heavy chain-only antibody with the VH of SEQ ID NO: 72 (antibody, V domains shown)
VH: QLQLQESGPGLVKPSETLSLTCTVSGGSISSSSYYWGWIRQPPGKGLEWIGSIYYSGATYYNPSLKNRVTISVDTSRNQFSLNLSSVTAADTAMYYCTREDSSNWRSRGQGTLVTVSS
notes: as for B1
With B4, the binding result in assay [1] and in assay [2] was “binds” each time.

B5: anti-CD22 heavy chain-only antibody with the VH of SEQ ID NO: 70 (antibody, V domains shown)
VH: QLQLQESGPGLVRPSETLSLTCTVSGGSISSSSYYWGWIRQPPGKGLEWIGSIYYSGSTYYNPSLKSRVTISVDTSKNQFSLKLSSVTAADTAVYYCTREDSSSWRSRGQGTLVTVSS
notes: as for B1
In the case of B5, the binding result in assay [1] and in assay [2] was “binds” each time.

B6: anti-CD22 heavy chain-only antibody with the VH of SEQ ID NO: 69 (antibody, V domains shown)
VH: QLQLQESGPGLVKPSETLSLTCTVSGGSISSSSYYWGWIRQPPGKGLEWIGSIYYSGSTYYNPSLKSRVTISVDTSKNQFSLKLSSVTAADTAVYYCTREDSSNWRSRGQGTLVTVSS
notes: as for B1
In the case of B6, the binding result in assay [1] and in assay [2] was “binds” throughout.

B7: anti-CD22 heavy chain-only antibody with the VH of SEQ ID NO: 79 (antibody, V domains shown)
VH: QLQLQESGPGLVKPSETLSLTCTVSGGSISSSSYYWGWIRQPPGKGLEWIGSIYYSGSTYYNPSLKNRVTISVDTSRNQFSLNLSSVTAADTAVYYCTRDDSSNWRSRGQGTLVTVSS
notes: as for B1
Turning to B7, the binding result in assay [1] and in assay [2] was “binds” throughout.

B8: anti-CD22 heavy chain-only antibody with the VH of SEQ ID NO: 75 (antibody, V domains shown)
VH: QLQLQESGPGLVKPSETLSLTCTVSGGSISSSSYYWGWIRQPPGKGLEWIGHIYYSGATYYNPSLKNRVTISVDTSKNQFSLKLSSVTAADTAVYYCTREDSSSWRSRGQGTLVTVSS
notes: as for B1
Consider B8, for which the binding result in assay [1] and in assay [2] was “binds” throughout.

B9: anti-CD22 heavy chain-only antibody with the VH of SEQ ID NO: 76 (antibody, V domains shown)
VH: QLQLQESGPGLVKPSETLSLTCTVSGGSISSSSYYWGWIRQPPGKGLEWIGSVYYTGATYYNPSLKNRVTISVDTSKNQFSLKLSSVTAADTAVYYCTRDDSSNWRSRGQGTLVTVSS
notes: as for B1
For B9, the binding result in assay [1] and in assay [2] was “binds” each time.

B10: anti-CD22 heavy chain-only antibody with the VH of SEQ ID NO: 80 (antibody, V domains shown)
VH: QLQLQESGPGLVKPSETLSLTCTVSGGSISSSSYYWGWIRQPPGKGLEWIGHIYYSGATYYNPSLKNRVTISVDTSRNQFSLNLSSVTAADTAVYYCTREDSSNWRSRGQGTLVTVSS
notes: as for B1
Turning to B10, the binding result in assay [1] and in assay [2] was “binds” each time.

B11: anti-CD22 heavy chain-only antibody with the VH of SEQ ID NO: 81 (antibody, V domains shown)
VH: QLQLQESGPGLVKPSETLSLTCTVSGGSIISSSYYWGWIRQPPGKGLEWIGSIYYSGSAYYHPSLKSRVTISIDTSKNQFSLKLSSVTAADTAVYYCARDDSSNWRSRGQGTLVTVSS
notes: as for B1
Take B11: the binding result in assay [1] and in assay [2] was “binds” each time.

B12: anti-CD22 heavy chain-only antibody with the VH of SEQ ID NO: 74 (antibody, V domains shown)
VH: QLQLQESGPGLVKPSETLSLTCTVSGDSISSGDYYWGWIRQSPEKGLEWIGHIYYSGVTYYNPSLKNRVTISVDTSKNQFSLKLSSVTAADTAVYYCKRDDSSNWRSRGQGTLVTVSS
notes: as for B1
On to B12, for which the binding result in assay [1] and in assay [2] was “binds” in each case.

B13: anti-CD22 heavy chain-only antibody with the VH of SEQ ID NO: 73 (antibody, V domains shown)
VH: QLQLQESGPGLVKPSETLSLTCTVSGGSISSSSYYWGWIRQPPGKGLEWIGSIYYSGVTYYNPSLKNRVTISVDTSKNQFSLKLSSVTAADTAVYYCTREDSSSWRSRGQGTLVTVSS
notes: as for B1
In the case of B13, the binding result in assay [1] and in assay [2] was “binds” in each case.

B14: anti-CD22 heavy chain-only antibody with the VH of SEQ ID NO: 78 (antibody, V domains shown)
VH: QLQLQESDPGLVKPSETLSLTCTVSGGSISSSSHYWGWIRQPPGKGLEWIGHIYYSGATYYNPSLKNRVTISVDTSRNQFSLNLSSVTAADTAVYYCTREDSSNWRSRGQGTLVTVSS
notes: as for B1
Turning to B14, the binding result in assay [1] and in assay [2] was “binds” throughout.

B15: anti-CD22 heavy chain-only antibody with the VH of SEQ ID NO: 82 (antibody, V domains shown)
VH: QLQLQESGPGLVKPSETLSLTCTVSGGSISSSSYYWGWIRQPPGKGLEWIGSIYYSGATYYNPSLKNRVTISVDTSRNQFSLNLSSVTAADTAVYYCTRDDSSNWRSRGQGTLVTVSS
notes: as for B1
Consider B15, for which the binding result in assay [1] and in assay [2] was “binds” throughout.

B16: anti-CD22 heavy chain-only antibody with the VH of SEQ ID NO: 67 (antibody, V domains shown)
VH: QLQLQESGPGLVKPSETLSLTCTVSGGSITSSSYYWGWIRQPPGKGLEWIGSIYYSGSTYYNPSLKSRVTISVDTSKNQFSLKLSSVTAADTAVYYCTRDDSSNWRSRGQGTLVTVSS
notes: as for B1
Turning to B16, the binding result in assay [1] and in assay [2] was “binds” in each case.

B17: anti-CD22 heavy chain-only antibody with the VH of SEQ ID NO: 84 (antibody, V domains shown)
VH: QLQLQESGPGLVKPSETLSLTCTVSGGSINDNSHYWGWIRQPPGKGLEWIGHIYYSGATYYNPSLKNRVTISVDTSRNQFSLNLSSVTAADTAVYYCTREDSSSWRSRGQGTLVTVSS
notes: as for B1
On to B17, for which the binding result in assay [1] and in assay [2] was “binds” in each case.

B18: anti-CD22 heavy chain-only antibody with the VH of SEQ ID NO: 71 (antibody, V domains shown)
VH: QLQLQESGPGLVKPSETLSLTCTVSGGSISSSSYYWGWIRQPPGKGLEWIGSIYYSGATYYNPSLKNRVTISVDTSRNQFSLNLSSVTAADTAVYYCTREDSSNWRSRGQGTLVTVSS
notes: as for B1
For B18, the binding result in assay [1] and in assay [2] was “binds” throughout.

B19: anti-CD22 heavy chain-only antibody with the VH of SEQ ID NO: 68 (antibody, V domains shown)
VH: QLQLQESGPGLVKPSETLSLTCTVSGGSISSSSYYWGWIRQPPGKGLEWIGSIYYSGVTYYNPSLKNRVTISVDTSKNQFSLKLSSVTAADTAVYYCTREDSSNWRSRGQGTLVTVSS
notes: as for B1
For the molecule B19, the binding result in assay [1] and in assay [2] was “binds” throughout.
